Assay results as given in patent US20140113872A1 (INSTITUT NATIONAL DE LA RECHERCHE SCIENTIFIQUE, published 2014).
Where two headings read alike, the source gives them in different places. Numbered stars: 1 amine (or outer) side, 2 acyl side, 3 side chain; on linkers, the order of the positions; unused ones are H or OH. Bridge positions count the residues as written; N and C are the ends. Square brackets hold non-standard residues; d marks the D form. Ends that are not written are not given here. dTiq = D-1,2,3,4-tetrahydroisoquinoline-1-carboxylic acid, O=C([C@H]1c2ccccc2CCN1[*:1])[*:2]; Bip = N[C@@H](Cc1ccc(-c2ccccc2)cc1)C(=O)O; Dip = N[C@H](C(=O)O)C(c1ccccc1)c1ccccc1; Phe(4-I) = N[C@@H](Cc1ccc(I)cc1)C(=O)O; 1Nal = N[C@@H](Cc1cccc2ccccc12)C(=O)O; d1Nal = N[C@H](Cc1cccc2ccccc12)C(=O)O; Tiq1c(1S) = O=C(O)[C@H]1NCCc2ccccc21; Tic = O=C(O)[C@@H]1Cc2ccccc2CN1; dTic = O=C(O)[C@H]1Cc2ccccc2CN1; Cha = N[C@@H](CC1CCCCC1)C(=O)O; dPhg = N[C@@H](C(=O)O)c1ccccc1; dTle = CC(C)(C)[C@@H](N)C(=O)O; Phg = N[C@H](C(=O)O)c1ccccc1; dAia = not defined here

T1: human urotensin II receptor (UT) (human, UniProt Q9UKP6 1-389)
T1 construct: whole, on cells; also called hUT; hGPR14
T1 sequence (looked up): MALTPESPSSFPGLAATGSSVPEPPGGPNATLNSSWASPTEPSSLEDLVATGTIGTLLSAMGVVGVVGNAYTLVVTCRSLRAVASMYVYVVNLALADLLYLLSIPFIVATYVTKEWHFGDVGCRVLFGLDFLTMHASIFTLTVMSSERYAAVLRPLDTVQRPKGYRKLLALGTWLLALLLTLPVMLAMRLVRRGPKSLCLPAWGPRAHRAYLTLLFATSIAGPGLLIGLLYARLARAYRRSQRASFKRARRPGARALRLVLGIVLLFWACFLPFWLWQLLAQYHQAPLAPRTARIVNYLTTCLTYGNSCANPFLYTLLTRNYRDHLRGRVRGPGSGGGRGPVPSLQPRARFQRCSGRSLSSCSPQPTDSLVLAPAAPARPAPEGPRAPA

T2: UT receptor present in rat aortic ring (rat, UniProt P49684 1-386)
T2 sequence (looked up): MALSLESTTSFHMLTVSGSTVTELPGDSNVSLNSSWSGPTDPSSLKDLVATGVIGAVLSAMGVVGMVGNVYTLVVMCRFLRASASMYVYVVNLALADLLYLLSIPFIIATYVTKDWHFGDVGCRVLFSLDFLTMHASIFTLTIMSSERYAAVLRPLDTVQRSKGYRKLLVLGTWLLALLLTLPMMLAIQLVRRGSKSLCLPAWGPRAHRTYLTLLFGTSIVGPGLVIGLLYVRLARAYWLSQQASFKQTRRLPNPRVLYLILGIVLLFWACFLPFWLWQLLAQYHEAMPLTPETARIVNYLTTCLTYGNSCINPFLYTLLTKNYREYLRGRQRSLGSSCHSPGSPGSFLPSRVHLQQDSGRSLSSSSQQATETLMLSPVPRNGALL


Tests used:
[1] = target: T1, human urotensin II receptor (UT); experiment: displacement of 0.2 nM 125I-hUII from CHO cells expressing human UT
[2] = target: T2, UT receptor present in rat aortic ring; experiment: cell-based or functional assay
[3] = target: T1, human urotensin II receptor (UT); experiment: displacement of 0.2 nM 125I-hUII from CHO cells expressing human UT; remark: listed apart in the source
Experimental: Cell Culture and Binding Experiments: Transfected CHO cells expressing the human urotensin receptor (CHO-UT) were maintained in Ham-F12 medium with 10% fetal bovine serum (FBS), 2 mM L-glutamine, 100 Ul/mL each of penicillin and streptomycin, and 400 μg/mL G418. […] Binding assays were following known literature procedures using CHO cells stably transfected with hGPR14. […] After 90 min of incubation at room temperature, cells were washed, lysed, and the cell-bound radioactivity was quantified using a γ-counter. […] The cells were then washed, lysed, and the radioactivity counted on a γ-counter (1470 Automatic Gamma Counter, Perkin Elmer).

[4] = target: T1, human urotensin II receptor (UT); experiment: as above; remark: listed apart in the source
[5] = target: T2, UT receptor present in rat aortic ring; experiment: cell-based or functional assay; remark: listed apart in the source
[6] = target: T2, UT receptor present in rat aortic ring; experiment: cell-based or functional assay; remark: listed apart in the source
[7] = target: T1, human urotensin II receptor (UT); experiment: dissociation from living CHO-UT cells started with 10^-6 M URP alone
Experimental: (§1) Binding assays were following known literature procedures using CHO cells stably transfected with hGPR14. […] After 90 min of incubation at room temperature, cells were washed, lysed, and the cell-bound radioactivity was quantified using a γ-counter. […] The cells were then washed, lysed, and the radioactivity counted on a γ-counter (1470 Automatic Gamma Counter, Perkin Elmer).

[8] = target: T1, human urotensin II receptor (UT); experiment: dissociation from living CHO-UT cells started with 10^-6 M URP + 10^-6 M urocontrin ([Bip^4]URP)
Experimental: as §1

IC50 [3] [nM] | pEC50 [4] | Aortic Ring contraction Emax (%) [2] | Molecule | further results
29 | 7.53 | 102 % of KCl (40 mM) contraction | H-ACF[Phg]KYCV-OH (disulfide 2-7, H-Ala-Cys-Phe-Phg-Lys-Tyr-Cys-Val-OH; also called compound 14) [[Phg^4]URP] | 
 |  | 117 % of KCl (40 mM) contraction | H-ETPDCFWKYCV-OH (disulfide 5-10) [human urotensin II (hUII)] | hUII pEC50, rat isolated aorta pre-treated with 0.3 µM [Bip^4]URP [5]: 8.31; hUII pEC50, rat isolated aorta pre-treated with 1 µM [Bip^4]URP [5]: 7.6; hUII pEC50, rat isolated aorta pre-treated with 3 µM [Bip^4]URP [5]: 7.55; hUII pEC50, rat isolated aorta, vehicle [5]: 8.98; Aortic Ring contraction EC50 [2]: 1 nM; Aortic Ring contraction pEC50 [2]: 9.08
 |  | 100 % of KCl (40 mM) contraction | H-ACFWKYCV-OH (disulfide 2-7; SMILES CC(C)[C@H](NC(=O)[C@@H]1CSSC[C@H](NC(=O)[C@H](C)N)C(=O)N[C@@H](Cc2ccccc2)C(=O)N[C@@H](Cc2c[nH]c3ccccc23)C(=O)N[C@@H](CCCCN)C(=O)N[C@@H](Cc2ccc(O)cc2)C(=O)N1)C(=O)O) [urotensin II-related peptide (URP)] | URP pEC50, rat aortic ring pre-treated with 10^-6 M [Bip^4]URP [6]: 7.74; Aortic Ring contraction EC50 [2]: 7 nM; Aortic Ring contraction pEC50 [2]: 8.09
10 |  | 126 % of KCl (40 mM) contraction | H-ACF[Tiq1c(1S)]KYCV-OH (disulfide 2-7, H-Ala-Cys-Phe-Tiq-Lys-Tyr-Cys-Val-OH; also called compound 16) [[Tiq^4]URP] | 

The next lines start with the molecule.

Molecule | IC50 [3] [nM] | pEC50 [4] | Aortic Ring contraction Emax (%) [2] | further results
[Tbg^4]URP (peptide) |  |  |  | pEC50 [1]: < 5
H-ACF[Dip]KYCV-OH (disulfide 2-7) [[Dip^4]URP] |  |  |  | Aortic Ring contraction Emax (%), maximum efficacy at 10^-5.5 M [2]: 23 % of KCl (40 mM) contraction
ACF[dTic]KYCV (disulfide 2-7) [[D-Tic^4]URP] |  |  | 128 % of KCl (40 mM) contraction | 
H-ACF[dPhg]KYCV-OH (disulfide 2-7, also called compound 15) [[D-Phg^4]URP] | 29 | 7.56 | 116 % of KCl (40 mM) contraction | 
H-ACF[Phe(4-I)]KYCV-OH (disulfide 2-7, H-Ala-Cys-Phe-Phe(I)-Lys-Tyr-Cys-Val-OH; also called compound 5; [para-iodo-Phe^4]URP) [[Phe(I)^4]URP] | 58 | 7.24 |  | Aortic Ring contraction Emax (%), maximum efficacy at 10^-5.5 M [2]: 92 % of KCl (40 mM) contraction
ACF[dTle]KYCV-OH (disulfide 2-7, also called compound 8) [[D-Tbg^4]URP] | > 1000 |  | 99 % of KCl (40 mM) contraction | 
AXFXKYCV (position 2 is beta,beta-dimethyl-cysteine (Pen); position 4 is Tiq; cyclic (Pen2-Cys7 disulfide), H-Ala-Pen-Phe-Tiq-Lys-Tyr-Cys-Val-OH; also called compound 20) [[Pen^2, Tiq^4]URP] |  | < 5 |  | 
H-ACF[1Nal]KYCV-OH (disulfide 2-7, H-Ala-Cys-Phe-Nal-Lys-Tyr-Cys-Val-OH; also called compound 3) [[1-Nal^4]URP] | 17 | 7.77 | 86 % of KCl (40 mM) contraction | 
H-ACF[Bip]KYCV-OH (disulfide 2-7) [[Bip^4]URP] |  |  |  | pIC50, reversal of contractile tone established in rat isolated aorta with 4 nM hUII [6]: 7.72
ACF[dAia]KYCV (disulfide 2-7; not fully specified (bridges); reading uncertain; also: D-Aia indole ring bonded to Lys5 backbone N, also called compound 13) [[D-Aia^4]URP] | 60 | 7.22 | 148 % of KCl (40 mM) contraction | 
ACF[dTiq]KYCV (disulfide 2-7, also called compound 17) [[D-Tiq^4]URP] | 21 | 7.68 | 113 % of KCl (40 mM) contraction | 
H-ACF[Cha]KYCV-OH (disulfide 2-7) [[Cha^4]URP] |  |  |  | Aortic Ring contraction Emax (%), maximum efficacy at 10^-5.5 M [2]: 77 % of KCl (40 mM) contraction
H-ACFWKYCV-OH (disulfide 2-7; also: 125I-labelled, site not given here, used at 0.2 nM; also called radiolabeled URP) [^125I-URP] |  |  |  | half-life (t1/2) [7]: 13.1 min; half-life (t1/2) [8]: 12.1 min
ACF[Tic]KYCV-OH (disulfide 2-7) [[Tic^4]URP] |  |  |  | pEC50 [1]: < 5; Aortic Ring contraction Emax (%), maximum efficacy at 10^-5.5 M [2]: 43 % of KCl (40 mM) contraction
ACF[d1Nal]KYCV (disulfide 2-7, also called compound 4; [D-Nal^4]URP) [[D-1-Nal^4]URP] | 46 | 7.33 |  | Aortic Ring contraction Emax (%), maximum efficacy at 10^-5.5 M [2]: 34 % of KCl (40 mM) contraction
